Molecular target: Notch1(EGF1-36) (amino acids 20-1426) (human, UniProt P46531 20-1426, biotin, chemically at the N-terminus (EZ-Link Sulfo-NHS-Biotin))
Experiment: SPR

Sequence of Notch1(EGF1-36) (amino acids 20-1426) (P46531 20-1426): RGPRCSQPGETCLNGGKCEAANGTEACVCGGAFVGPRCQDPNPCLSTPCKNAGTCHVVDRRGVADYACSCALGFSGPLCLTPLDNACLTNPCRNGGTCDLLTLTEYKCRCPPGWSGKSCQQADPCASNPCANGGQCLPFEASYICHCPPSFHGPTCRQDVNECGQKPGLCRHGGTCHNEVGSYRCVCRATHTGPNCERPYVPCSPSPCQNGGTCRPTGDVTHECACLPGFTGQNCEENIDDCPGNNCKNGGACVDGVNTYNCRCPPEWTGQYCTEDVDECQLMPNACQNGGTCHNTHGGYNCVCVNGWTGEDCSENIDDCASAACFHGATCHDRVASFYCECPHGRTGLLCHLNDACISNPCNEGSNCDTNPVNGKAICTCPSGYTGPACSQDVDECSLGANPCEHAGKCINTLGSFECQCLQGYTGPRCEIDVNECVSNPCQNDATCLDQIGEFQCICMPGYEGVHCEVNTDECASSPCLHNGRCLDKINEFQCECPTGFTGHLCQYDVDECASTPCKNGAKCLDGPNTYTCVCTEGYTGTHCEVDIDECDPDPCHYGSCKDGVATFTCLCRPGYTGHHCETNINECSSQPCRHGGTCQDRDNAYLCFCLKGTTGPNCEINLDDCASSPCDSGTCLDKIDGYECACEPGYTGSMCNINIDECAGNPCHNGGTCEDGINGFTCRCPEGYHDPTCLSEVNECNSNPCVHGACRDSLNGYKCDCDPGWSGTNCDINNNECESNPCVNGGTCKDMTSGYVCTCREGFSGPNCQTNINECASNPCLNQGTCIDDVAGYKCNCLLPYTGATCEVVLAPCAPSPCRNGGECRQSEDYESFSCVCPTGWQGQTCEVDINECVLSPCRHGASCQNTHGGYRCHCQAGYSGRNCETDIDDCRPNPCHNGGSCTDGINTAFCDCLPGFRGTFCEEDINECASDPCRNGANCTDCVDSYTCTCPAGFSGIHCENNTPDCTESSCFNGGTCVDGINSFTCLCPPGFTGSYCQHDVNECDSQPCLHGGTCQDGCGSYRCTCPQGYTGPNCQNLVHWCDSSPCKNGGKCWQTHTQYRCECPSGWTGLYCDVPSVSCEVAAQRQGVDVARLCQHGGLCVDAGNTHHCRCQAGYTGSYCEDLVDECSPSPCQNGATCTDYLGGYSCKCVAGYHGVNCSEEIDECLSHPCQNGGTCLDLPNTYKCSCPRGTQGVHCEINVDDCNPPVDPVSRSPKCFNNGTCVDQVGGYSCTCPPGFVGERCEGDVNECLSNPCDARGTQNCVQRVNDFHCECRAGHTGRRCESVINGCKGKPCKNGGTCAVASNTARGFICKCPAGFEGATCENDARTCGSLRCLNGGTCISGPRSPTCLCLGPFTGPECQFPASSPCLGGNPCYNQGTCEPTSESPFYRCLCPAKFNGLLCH

Kd: 7.7 µM
B1: Human DLL4 (N-EGF5, amino acids 27-400) (domain or fragment)
chain: SGVFQLQLQEFINERGVLASGRPCEPGCRTFFRVCLKHFQAVVSPGPCTFGTVSTPVLGTNSFAVRDDSSGGGRNPLQLPFNFTWPGTFSLIIEAWHAPGDDLRPEALPPDALISKIAIQGSLAVGQNWLLDEQTSTLTRLRYSYRVICSDNYYGDNCSRLCKKRNDHFGHYVCQPDGNLSCLPGWTGEYCQQPICLSGCHEQNGYCSKPAECLCRPGWQGRLCNECIPHNGCRHGTCSTPWQCTCDEGWGGLFCDQDLNYCTHHSPCKNGATCSNSGQRSYTCTCRPGYTGVDCELELSECDSNPCRNGGSCKDQEDGYHCLCPPGYYGLHCEHSTLSCADSPCFNGGSCRERNQGANYACECPPNFTGSNCE
